Experimental data as given in publication PMC4022466, “Spermatid Cyst Polarization in Drosophila Depends upon apkc and the CPEB Family Translational Regulator orb2”.

Molecular target: T1, Orb2-RRM (GST-Orb2 C-terminus) (UniProt Q9VSR3 447-704)
T1 sequence: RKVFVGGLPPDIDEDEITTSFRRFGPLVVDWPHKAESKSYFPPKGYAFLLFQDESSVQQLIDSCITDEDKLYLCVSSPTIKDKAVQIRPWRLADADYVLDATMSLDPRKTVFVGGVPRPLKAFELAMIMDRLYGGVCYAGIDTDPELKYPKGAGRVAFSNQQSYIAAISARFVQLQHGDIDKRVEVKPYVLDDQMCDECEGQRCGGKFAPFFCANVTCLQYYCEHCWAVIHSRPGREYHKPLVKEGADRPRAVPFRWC
Test: competition; 100-400 fold excess cold against RA-GS probe; 25 mM Tris pH 7.5, 10 mM EDTA (rest of buffer and temperature not in the material)
Conditions: protein: recombinant; tags: GST

ACUUUUGUUUUUAAUGCAUUCCAC (ssRNA) [Comp-CPE (competitor A)]: binds.
